Patent US20260193366A1 (APOGEE THERAPEUTICS, published 2026)

T1: hIL-4Rα on cells (human, UniProt P24394 26-825)
T1 sequence: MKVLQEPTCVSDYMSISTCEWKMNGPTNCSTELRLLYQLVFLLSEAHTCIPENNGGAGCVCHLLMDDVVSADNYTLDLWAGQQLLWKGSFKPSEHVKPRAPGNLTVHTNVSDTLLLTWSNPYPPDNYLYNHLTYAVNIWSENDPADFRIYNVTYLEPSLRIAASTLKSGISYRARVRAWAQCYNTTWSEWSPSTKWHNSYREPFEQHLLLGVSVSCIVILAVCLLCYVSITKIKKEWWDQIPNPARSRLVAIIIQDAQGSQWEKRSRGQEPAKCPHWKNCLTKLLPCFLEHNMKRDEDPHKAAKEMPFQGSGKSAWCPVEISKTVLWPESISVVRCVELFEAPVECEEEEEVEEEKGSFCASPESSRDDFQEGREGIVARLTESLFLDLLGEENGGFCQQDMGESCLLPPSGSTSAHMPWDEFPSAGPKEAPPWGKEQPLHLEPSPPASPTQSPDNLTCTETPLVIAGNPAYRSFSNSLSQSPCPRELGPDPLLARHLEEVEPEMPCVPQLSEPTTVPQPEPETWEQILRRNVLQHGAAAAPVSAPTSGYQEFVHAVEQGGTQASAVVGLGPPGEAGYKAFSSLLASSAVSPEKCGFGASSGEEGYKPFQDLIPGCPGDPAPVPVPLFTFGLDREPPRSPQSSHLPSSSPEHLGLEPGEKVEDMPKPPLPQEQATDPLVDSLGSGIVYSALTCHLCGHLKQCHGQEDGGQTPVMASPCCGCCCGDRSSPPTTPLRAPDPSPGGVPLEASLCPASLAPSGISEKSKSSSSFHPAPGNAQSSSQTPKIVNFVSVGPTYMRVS

T2: cynomolgus monkey IL-4Rα (cynomolgus monkey, UniProt P24394 26-231 (human entry), limits assumed)
T2 construct: also called Cyno IL-4Rα; cyIL-4Rα
T2 chain: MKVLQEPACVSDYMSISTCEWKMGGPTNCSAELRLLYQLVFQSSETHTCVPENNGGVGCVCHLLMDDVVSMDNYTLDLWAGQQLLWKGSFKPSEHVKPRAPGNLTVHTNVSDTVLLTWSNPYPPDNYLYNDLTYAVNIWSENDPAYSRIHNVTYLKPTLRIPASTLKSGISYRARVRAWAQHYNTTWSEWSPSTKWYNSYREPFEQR

T3: human IL-4Rα (human, UniProt P24394 26-232)
T3 construct: also called Hu IL-4Rα; hIL-4Rα
T3 sequence: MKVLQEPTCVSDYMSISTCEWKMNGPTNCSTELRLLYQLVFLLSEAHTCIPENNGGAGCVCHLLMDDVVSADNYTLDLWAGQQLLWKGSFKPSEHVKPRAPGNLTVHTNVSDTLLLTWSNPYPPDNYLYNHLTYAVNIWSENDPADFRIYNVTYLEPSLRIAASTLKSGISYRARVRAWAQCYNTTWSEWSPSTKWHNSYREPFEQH


Key:
[1] = target: T1, hIL-4Rα on cells; experiment: cell-based or functional assay
[2] = target: T1, hIL-4Rα on cells; experiment: cell-based or functional assay; remark: listed apart in the source
[3] = target: T2, cynomolgus monkey IL-4Rα; experiment: SPR, Carterra LSA;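 also: antibodies captured on an anti-human Fc sensor chip, antigen injected at several concentrations, association and dissociation rates fitted with a 1:1 Langmuir model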
Experimental: (§1) Binding affinity (KD) of antibodies to human and cynomolgus monkey IL-4Rα was determined through surface plasmon resonance (SPR) using a Carterra LSA. Briefly, an HC30M sensor chip that was previously functionalized with a polyclonal mixture of goat anti-human Fc antibody and used to capture purified antibodies at a level between 100-1000 RLU. […] Regeneration of the chip between different concentrations of antigen was performed with 200 mM phosphoric acid and antibody was captured again as previously described. Association and dissociation rate constants were subsequently determined through fitting to a 1:1 Langmuir binding model using the Kinetics Software from Carterra from which a KD value was derived.

[4] = target: T3, human IL-4Rα; experiment: SPR, Carterra LSA;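 also: antibodies captured on an anti-human Fc sensor chip, antigen injected at several concentrations, association and dissociation rates fitted with a 1:1 Langmuir model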
Experimental: as §1

[5] = target: T1, hIL-4Rα on cells; experiment: FACS on HEK293 cells, competitor biotin-hIL-4;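 also: HEK293 cells stably co-expressing hIL-13Rα and hIL-4Rα, stained for 1 h at 4 °C, read-out as mean fluorescence intensity by flow cytometry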
Experimental: (§2) Briefly, HEK293 previously transduced to stably express both hIL-13Rα and hIL-4Rα were cultured and harvested. Cells were seeded at 200,000 cells in 100 uL per well. Cells were washed and the supernatant discarded. […] The cells were stained in this mixture at 4° C. for 1 hour. […] Cells were incubated 4° C. for 1 hour, protected from light. Cells were then washed and the MFI of cells in each well were recorded by FACS using a BD FACSCanto II. Subsequent data were analyzed using GraphPad Prism.

[6] = target: T1, hIL-4Rα on cells; experiment: FACS on HEK293 cells, competitor biotin-hIL-13;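 also: stably transduced cells co-expressing both receptor chains, stained cold, with cell-bound signal read as mean fluorescence intensity by flow cytometry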
Experimental: as §2

[7] = target: T1, hIL-4Rα on cells; experiment: cell-based or functional assay; remark: listed apart in the source

| Binder | Relative Inhibition of IL-4 induced TARC IC50 [1] | Relative Inhibition of IL-13 induced TARC IC50 [1] | Relative Inhibition of IL-4 induced TF-1 Proliferation IC50 [2] | Relative Inhibition of IL-13 induced TF-1 Proliferation IC50 [2] | KD Relative to Dupilumab [3] | Kd [3] | KD Relative to Dupilumab [4] | Kd [4] | Relative Blockade of IL-4 Binding IC50 [5] | Relative Blockade of IL-13 Binding IC50 [6] | Relative Inhibition of IL-4 induced pSTAT6 IC50 [7] | Relative Inhibition of IL-13 induced pSTAT6 IC50 [7] |
| --- | --- | --- | --- | --- | --- | --- | --- | --- | --- | --- | --- | --- |
| Construct 29 (mAb437) (antibody, IgG4, V domains shown, VH/VL only) VH: EVQLVESGGGLEQPGGSLRLSCAGSGFTFRDFAMTWVRQAPGKGLEWVSSISGSGGNIYYADSVKGRFTISRDNSKNTLYLQMNSLRAEDTAVYYCAKDRLSVTVRPRYYGLDVWGQGTTVTVSS VL: DIVMTQSPLSLPVTPGEPASISCTSSQSLLYSIGYNYVDWYLQKSGQSPQLLIYLGNKRASGVPDRFSGSGSGTDFTLKISRVEAEDVGFYYCMQSLTSPYTFGQGTKLEIK | 0.693 relative to dupilumab | 1.39 relative to dupilumab | 0.486 relative to dupilumab | 0.851 relative to dupilumab | 0.02 | 15.7 nM | 0.72 | 0.0081 nM | 0.887 relative to dupilumab | 0.695 relative to dupilumab | 0.63 relative to dupilumab | 0.624 relative to dupilumab |
| Construct 5 (mAb414) (antibody, IgG4, V domains shown, VH/VL only) VH: EVQLVESGGGLEQPGGSLRLSCAGSGFTFRDFAMTWVRQAPGKGLEWVSSISGSGDNIYYADSVKGRFTISRDNSKNTLYLQMNSLRAEDTAVYYCAKDRVSITIRPRYYGLDVWGQGTTVTVSS VL: DIVMTQSPLSLPVTPGEPASISCRSSQSLLYSIGKNYVDWYLQKSGQSPQLLIYLGNKRASGVPDRFSGSGSGTDFTLKISRVEAEDVGFYYCMQSLQTPYVFGQGTKLEIK | 0.552 relative to dupilumab | 0.897 relative to dupilumab | 0.521 relative to dupilumab | 0.94 relative to dupilumab | 0.18 | 116 nM | 2.1 | 0.0238 nM | 1.01 relative to dupilumab | 1 relative to dupilumab | 0.78 relative to dupilumab | 1.07 relative to dupilumab |
| Construct 1 (mAb410) (antibody, IgG4, V domains shown, VH/VL only) VH: EVQLVESGGGLEQPGGSLRLSCAGSGFTFRDFAMTWVRQAPGKGLEWVSSISGSGGNIYYADSVKGRFTISRDNSKNTLYLQMNSLRAEDTAVYYCAKDRLSKTIRPRYYGLDVWGQGTTVTVSS VL: DIVMTQSPLSLPVTPGEPASISCRSSQSVLYSIGYNYVDWYLQKSGQSPQLLIYLGSKRASGVPDRFSGSGSGTDFTLKISRVEAEDVGFYYCMQSLDTPYTFGQGTKLEIK | 0.427 relative to dupilumab | 0.485 relative to dupilumab | 0.414 relative to dupilumab | 1.37 relative to dupilumab | 0.17 | 107 nM | 1.25 | 0.0141 nM | 1.1 relative to dupilumab | 0.968 relative to dupilumab | 0.592 relative to dupilumab | 0.671 relative to dupilumab |
| Construct 4 (mAb413) (antibody, IgG4, V domains shown, VH/VL only) VH: EVQLVESGGGLEQPGGSLRLSCAGSGFTFRDFAMTWVRQAPGKGLEWVSSISGSGGNIYYADSVKGRFTISRDNSKNTLYLQMNSLRAEDTAVYYCAKDRLSKTIRPRYYGLDVWGQGTTVTVSS VL: DIVMTQSPLSLPVTPGEPASISCTASQSLLYSIGYNYVDWYLQKSGQSPQLLIYLGNNRATGVPDRFSGSGSGTDFTLKISRVEAEDVGFYYCMQALTTPYTFGQGTKLEIK | 0.266 relative to dupilumab | 0.614 relative to dupilumab | 0.442 relative to dupilumab | 1.11 relative to dupilumab | 0.2 | 128 nM | 1.24 | 0.014 nM | 1.01 relative to dupilumab | 0.989 relative to dupilumab | 0.493 relative to dupilumab | 0.862 relative to dupilumab |
| Construct 8 (mAb417) (antibody, IgG4, V domains shown, VH/VL only) VH: EVQLVESGGGLEQPGGSLRLSCAGSGFTFRDFAMTWVRQAPGKGLEWVSSISGSGDNIYYADSVKGRFTISRDNSKNTLYLQMNSLRAEDTAVYYCAKDRLSVTVRPRYYGLDVWGQGTTVTVSS VL: DIVMTQSPLSLPVTPGEPASISCRSTQSLLYSIGKNYVDWYLQKSGQSPQLLIYLGNNRATGVPDRFSGSGSGTDFTLKISRVEAEDVGFYYCMQALTTPYAFGQGTKLEIK | 1.11 relative to dupilumab | 1.05 relative to dupilumab | 0.734 relative to dupilumab | 1.47 relative to dupilumab | 0.25 | 157 nM | 0.83 | 0.0094 nM | 1.01 relative to dupilumab | 0.953 relative to dupilumab | 1.01 relative to dupilumab | 2.1 relative to dupilumab |
| Construct 3 (mAb412) (antibody, IgG4, V domains shown, VH/VL only) VH: EVQLVESGGGLEQPGGSLRLSCAGSGFTFRDFAMTWVRQAPGKGLEWVSSISGSGSSTYYADSVKGRFTISRDNSKNTLYLQMNSLRAEDTAVYYCAKDRLSITVRPRYYGLDVWGQGTTVTVSS VL: DIVMTQSPLSLPVTPGEPASISCRSSQSLLYSIGYNYVDWYLQKSGQSPQLLIYLGNKRASGVPDRFSGSGSGTDFTLKISRVEAEDVGFYYCMQALTTPYTFGQGTKLEIK | 0.521 relative to dupilumab | 0.506 relative to dupilumab | 0.514 relative to dupilumab | 0.683 relative to dupilumab | 0.14 | 85.4 nM | 0.76 | 0.00856 nM | 0.877 relative to dupilumab | 0.949 relative to dupilumab | 0.767 relative to dupilumab | 0.66 relative to dupilumab |
| Construct 2 (mAb411) (antibody, IgG4, V domains shown, VH/VL only) VH: EVQLVESGGGLEQPGGSLRLSCAGSGFTFRDFAMTWVRQAPGKGLEWVSSISGSGGNIYYADSVKGRFTISRDNSKNTLYLQMNSLRAEDTAVYYCAKDRLSKTIRPRYYGLDVWGQGTTVTVSS VL: DIVMTQSPLSLPVTPGEPASISCTASQSLLYSIGYNYVDWYLQKSGQSPQLLIYLGSKRASGVPDRFSGSGSGTDFTLKISRVEAEDVGFYYCMQALTTPYTFGQGTKLEIK | 0.267 relative to dupilumab | 0.314 relative to dupilumab | 0.376 relative to dupilumab | 0.87 relative to dupilumab | 0.1 | 64.2 nM | 1.61 | 0.0181 nM | 0.799 relative to dupilumab | 0.942 relative to dupilumab | 0.507 relative to dupilumab | 0.685 relative to dupilumab |
| Construct 6 (mAb415) (antibody, IgG4, V domains shown, VH/VL only) VH: EVQLVESGGGLEQPGGSLRLSCAGSGFTFRDFAMTWVRQAPGKGLEWVSSISGSGDNIYYADSVKGRFTISRDNSKNTLYLQMNSLRAEDTAVYYCAKDRLSVTVRPRYYGLDVWGQGTTVTVSS VL: DIVMTQSPLSLPVTPGEPASISCRSSQGLLYSIGYNYVDWYLQKSGQSPQLLIYLGNKRASGVPDRFSGSGSGTDFTLKISRVEAEDVGFYYCMQSLQTPYTFGQGTKLEIK | 0.879 relative to dupilumab | 1.44 relative to dupilumab | 0.92 relative to dupilumab | 2.06 relative to dupilumab | 0.09 | 59.5 nM | 1.02 | 0.0115 nM | 1.16 relative to dupilumab | 0.99 relative to dupilumab | 0.729 relative to dupilumab | 1.35 relative to dupilumab |
